Data on 2 molecules can be found in paper PMC11723922, “The TGF-β mimic TGM4 achieves cell specificity through combinatorial surface co-receptor binding” (EMBO Reports, 2024).

Test [1] addresses T1, Mouse CD44 extracellular domain, recombinant (mouse, UniProt P15379 23-685).
T1 construct: CD44, mouse, extracellular domain; also called mCD44; murine CD44; source: expi293 cells, purified from the conditioned medium
T1 sequence (looked up): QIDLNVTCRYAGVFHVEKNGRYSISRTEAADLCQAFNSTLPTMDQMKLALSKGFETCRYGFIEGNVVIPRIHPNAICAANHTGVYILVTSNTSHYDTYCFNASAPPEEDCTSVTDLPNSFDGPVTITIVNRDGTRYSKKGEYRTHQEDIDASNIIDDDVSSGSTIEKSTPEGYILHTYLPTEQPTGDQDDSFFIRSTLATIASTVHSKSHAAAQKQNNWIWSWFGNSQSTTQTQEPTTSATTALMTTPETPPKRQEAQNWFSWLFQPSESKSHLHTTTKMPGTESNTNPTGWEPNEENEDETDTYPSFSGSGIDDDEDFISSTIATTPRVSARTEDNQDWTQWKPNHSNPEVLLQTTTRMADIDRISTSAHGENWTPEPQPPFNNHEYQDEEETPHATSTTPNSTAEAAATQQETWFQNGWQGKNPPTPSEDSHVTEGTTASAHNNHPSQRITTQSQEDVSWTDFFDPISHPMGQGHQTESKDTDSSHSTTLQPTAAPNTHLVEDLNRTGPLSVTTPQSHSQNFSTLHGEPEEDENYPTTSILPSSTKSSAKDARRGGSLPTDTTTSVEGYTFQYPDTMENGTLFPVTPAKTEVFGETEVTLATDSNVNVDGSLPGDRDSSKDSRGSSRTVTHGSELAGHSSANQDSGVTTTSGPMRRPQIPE
As to the kind of experiment: ITC; TGM D4-5 fragments with mouse or human CD44 extracellular domain; 25 mM Na2HPO4, 50 mM NaCl, pH 6.0, 35 °C; two datasets globally fit (NITPIC, SEDPHAT). As to conditions: both partners purified. A general note: In ITC the heat of successive injections is recorded.

Test [2] deals with T2, Human CD44 extracellular domain, recombinant (human, UniProt P16070 21-649).
T2 construct: CD44, human, extracellular domain; also called hCD44; source: expi293 cells, purified from the conditioned medium
The test is described as above. The following applies: both partners purified.

T2 sequence (P16070 21-649): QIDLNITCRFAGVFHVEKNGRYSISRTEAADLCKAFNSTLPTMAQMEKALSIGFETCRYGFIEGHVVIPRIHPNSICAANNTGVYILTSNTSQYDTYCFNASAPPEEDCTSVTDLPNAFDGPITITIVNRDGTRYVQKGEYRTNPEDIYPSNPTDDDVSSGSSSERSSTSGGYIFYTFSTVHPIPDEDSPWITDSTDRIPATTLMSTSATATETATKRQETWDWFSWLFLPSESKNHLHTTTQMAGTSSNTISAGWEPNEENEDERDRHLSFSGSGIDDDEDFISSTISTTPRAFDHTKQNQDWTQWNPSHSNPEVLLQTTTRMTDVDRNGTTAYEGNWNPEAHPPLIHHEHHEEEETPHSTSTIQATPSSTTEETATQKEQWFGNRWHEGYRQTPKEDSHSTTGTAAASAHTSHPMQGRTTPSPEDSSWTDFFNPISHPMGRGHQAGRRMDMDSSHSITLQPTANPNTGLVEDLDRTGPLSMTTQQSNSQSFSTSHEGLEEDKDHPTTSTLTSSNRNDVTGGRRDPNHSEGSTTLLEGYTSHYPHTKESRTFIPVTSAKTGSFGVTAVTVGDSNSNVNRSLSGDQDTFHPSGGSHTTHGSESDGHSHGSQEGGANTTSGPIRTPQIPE

B1: TGM1 D4-5, recombinant (domain or fragment)
chain: RCKPLEANESVHYEYFTMTNETDKKKGPPAKVGKSGKYPEHTCVKKVCSKWPYTCSTGGPIFGECIGATWNFTALMECINARGCSSDDLFDKLGFEKVIVRKGEGSDSYKDDFARFYATGSKVIAECGGKTVRLECSNGEWHEPGTKTVHRCTKDGIRTL
The term Kd denotes the constant that tells how readily two partners part at equilibrium. On to B1, for which the results for the Kd in test [1] and in test [2] were 30 nM and 122 nM, respectively.

B2: TGM4 D4-5, recombinant (domain or fragment)
chain: RCKPLETNVSVHYEYFTMTNETGRKEGTPAEVDKGGKYPQHTCVRKFCDKSPYTCSVKGPIFGECLDGQWNFTALDECLNARGCNSDDLFDKLGFEGVMVREEEGSDSYKDDFVRFYATGSKVNAECKGKTVQLECSDGEWHDPGTKTVHRCTKEGIRAL
modifications: biotinylated in the streptavidin pull-downs; Alexa Fluor 488 label in flow cytometry; unlabelled in ITC and as competitor
Consider B2, for which the figures for the Kd in test [1] and in test [2] were 20 nM and 78 nM, respectively.
